A short description of the data set: Human insulin infusion via implanted drug delivery catheter system (DDCS) in rats, plasma insulin and glucose versus time. The class given is in vivo. The following applies: for Time at which blood insulin levels peaked post infusion: human insulin 10 milliU/kg/min, 20 weeks post implantation. The text has this: The devices were implanted in 4 rats weighing ˜350 gm. Each animal was implanted with 2 devices: a mesenteric DDCS, implanted within the loose connective tissue of the bowel mesentery, and a subcutaneous DDCS implanted in the dorsal subcutaneous loose connective tissue. Catheters were primed with saline and proximal ends sealed. Catheters were then coiled and secured within the abdominal and subcutaneous spaces, respectively. There were no perioperative surgical complications and all 4 animals increased to a mean weight of 592±83 gm by 20 weeks.
The proximal portion of the catheters was exteriorized at 20-weeks post implantation and human insulin infusions were started at 10 milliU/kg/min with infusion rates of 60 μL/hr after careful determination of catheter dead space volume. Two animals were randomly assigned to receive insulin via mesenteric DDCS and two animals received infusions via subcutaneous DDCS. When the infusion was terminated, depth of anesthesia was increased and DDCS and surrounding tissue were explanted and immediately immersed in 10% buffered formalin for histological analysis. Tissue specimens were embedded in paraffin and 7-10 microns sections were prepared for H and E stains.

Take insulin: the “Time at which blood insulin levels peaked post infusion” value is ≤ 5 min (mesenteric DDCS) and ≤ 5 min (subcutaneous DDCS). Further, the “Blood glucose concentrations during insulin infusion” value (mesenteric and subcutaneous DDCS, 10 milliU/kg/min, measured at 5, 15, 30 min, not fasted, isoflurane anesthesia) is given as “decreased in proportion to increasing insulin concentrations”.

For the origin of these results see US6471689B1, “Implantable drug delivery catheter system with capillary interface” (Thomas Jefferson University, priority 1999, dated 2002).
